The text below walks through data of publication PMC4888247.

The term stoichiometry N denotes the number of molecules, sites or subunits per partner or assembly.

For assay [1], the target named is human S100A8 (human) (UniProt P05109). The assay can be described thus: crystal structure; crystal form 1, P212121, 2.2 A; Zn2+/Ca2+-bound (3 mM ZnCl2 added); 0.2 M ammonium acetate, 0.1 M Na acetate pH 4.0, 15 % PEG 3350, 0.4 % 2,2,2-trifluoroethanol; eight molecules per asymmetric unit.
For assay [2] the target is unchanged. The assay can be described thus: SEC; 24 ml Superdex 75, 20 mM HEPES pH 7.5, 200 mM NaCl, 5 mM CaCl2 (calcium only, no zinc); sizes from a calibration curve with protein standards. In general terms: In gel filtration, larger molecules generally elute earlier.
For assay [3] the target is unchanged. In words: crystal structure; crystal form 2, C2221, 2.1 A; Zn2+/Ca2+-bound with a (Zn)2-cacodylate complex; 5 mM ZnCl2, 0.1 M Na cacodylate pH 6.5, 8 % PEG 8000; four molecules per asymmetric unit.

“And” between values parts separate entries of the source, which are not always exact repeats. Equal entries are not always repeated.

“human S100A8 (from UniProt P05109 2-93) (natural protein)”: the stoichiometry N in the assay with human S100A8 (human) [1] was 4; with human S100A8 (human) [2], 4 and 2; in the assay with human S100A8 (human) [3] it was 4.
